Among the data in patent US20110158908A1, “CYCLOSPORIN A-BINDING PROTEIN” (Sapporo Medical University, priority 2007, published 2011) are Kd values, retold here.

What is called Kd is the constant that tells how readily two partners part at equilibrium.

This experiment has as its target recombinant CSABP protein (CSABP-FL) (human) (UniProt Q9H6S0). Put plainly: SPR, Biacore 3000; recombinant CSABP-FL immobilized on CM5 chip by amine coupling, CsA in PBS-8% DMSO as analyte. (In general: In SPR one partner is held on a chip, and binding of the other changes the refractive index at the surface.)

As for cyclosporin A (CsA) (peptide), the Kd was found to be 120 nM.
